T1: 35S-methionine-labeled His6-tagged murine caspase-14
T1 sequence: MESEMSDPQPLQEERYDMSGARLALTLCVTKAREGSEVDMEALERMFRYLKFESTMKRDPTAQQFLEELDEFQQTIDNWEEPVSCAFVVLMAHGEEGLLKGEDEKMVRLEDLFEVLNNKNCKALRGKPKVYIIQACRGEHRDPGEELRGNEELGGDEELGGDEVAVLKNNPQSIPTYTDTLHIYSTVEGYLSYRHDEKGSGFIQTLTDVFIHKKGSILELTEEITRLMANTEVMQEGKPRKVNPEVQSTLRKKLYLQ

T2: radiolabeled murine caspase-3 (UniProt P70677)
T2 sequence: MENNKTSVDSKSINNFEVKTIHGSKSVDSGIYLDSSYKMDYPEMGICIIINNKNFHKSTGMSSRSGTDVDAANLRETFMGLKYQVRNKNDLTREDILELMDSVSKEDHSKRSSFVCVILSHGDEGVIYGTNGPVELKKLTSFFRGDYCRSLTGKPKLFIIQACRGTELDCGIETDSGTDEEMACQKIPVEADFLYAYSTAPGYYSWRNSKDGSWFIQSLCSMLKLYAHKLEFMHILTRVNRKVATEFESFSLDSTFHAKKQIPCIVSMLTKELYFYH

T3: 35S-methionine-labeled His6-tagged murine caspase-14
T3 chain: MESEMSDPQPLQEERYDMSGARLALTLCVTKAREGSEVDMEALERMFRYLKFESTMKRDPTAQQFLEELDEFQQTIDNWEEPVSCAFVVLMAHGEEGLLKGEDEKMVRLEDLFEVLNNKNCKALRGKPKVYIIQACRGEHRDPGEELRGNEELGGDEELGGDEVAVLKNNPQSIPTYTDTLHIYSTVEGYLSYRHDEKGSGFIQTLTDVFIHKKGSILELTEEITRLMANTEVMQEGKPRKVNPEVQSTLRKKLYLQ


Columns and labels:
[1] = system: T1, 35S-methionine-labeled His6-tagged murine caspase-14
[2] = molecular target: T2, radiolabeled murine caspase-3
[3] = molecular target: T3, 35S-methionine-labeled His6-tagged …

Molecule | in vitro cleavage of 35S-methionine-labeled His6-tagged murine caspase-14, SDS-PAGE and autoradiography [1] | efficiency of proteolysis by serial 1:5 dilution of caspase-8 lysate, caspase-3 against caspase-14 as substrate [2] | in vitro cleavage of radiolabeled caspase-14 [3]
murine caspase-8 (prodomain-deleted, lysate of E. coli expressing pLT-DpromCASP-8) | murine caspase-8 cleaved this 35.5 kDa murine caspase-14 weakly into 24 kDa (p18) and 11 kDa (p11) fragments | proteolytic activity of caspase-8 was at least 1000 times more efficient on caspase-3 than on murine caspase-14 | –
purified murine caspase-3 (protein) SGIYLDSSYKMDYPEMGICIIINNKNFHKSTGMSSRSGTDVDAANLRETFMGLKYQVRNKNDLTREDILELMDSVSKEDHSKRSSFVCVILSHGDEGVIYGTNGPVELKKLTSFFRGDYCRSLTGKPKLFIIQACRGTELDCGIETDSGTDEEMACQKIPVEADFLYAYSTAPGYYSWRNSKDGSWFIQSLCSMLKLYAHKLEFMHILTRVNRKVATEFESFSLDSTFHAKKQIPCIVSMLTKELYFYH | – | – | none of the active enzyme preparations were able to cleave caspase-14
purified murine caspase-1 (protein) NKEDGTFPGLTGTLKFCPLEKAQKLWKENPSEIYPIMNTTTRTRLALIICNTEFQHLSPRVGAQVDLREMKLLLEDLGYTVKVKENLTALEMVKEVKEFAACPEHKTSDSTFLVFMSHGIQEGICGTTYSNEVSDILKVDTIFQMMNTLKCPSLKDKPKVIIIQACRGEKQGVVLLKDSVRDSEEDFLTDAIFEDDGIKKAHIEKDFIAFCSSTPDNVSWRHPVRGSLFIESLIKHMKEYAWSCDLEDIFRKVRFSFEQPEFRLQMPTADRVTLTKRFYLFPGH | – | – | none of the active enzyme preparations were able to cleave caspase-14
purified murine caspase-6 (protein) GFYKSREVFDPAEQYKMDHKRRGVALIFNHERFFWHLTLPERRGTNADRDNLTRRFSDLGFEVKCFNDLRAEELLLKIHEVSTSSHIDADCFICVFLSHGEGNHVYAYDAKIEIQTLTGLFKGDKCQSLVGKPKIFIIQACRGSQHDVPVVPLDMVDHQTDKLDNVTQVDAASVYTLPAGADFLMCYSVAEGYYSHRETVNGSWYIQDLCEMLARYGSSLEFTELLTLVNRKVSQRRVDFCKDPDAIGKKQVPCFASMLTKKLHFCPKPSK | – | – | none of the active enzyme preparations were able to cleave caspase-14
purified murine granzyme B (protein) IIGGHEVKPHSRPYMALLSIKDQQPEAICGGFLIREDFVLTAAHCEGSIINVTLGAHNIKEQEKTQQVIPMVKCIPHPDYNPKTFSNDIMLLKLKSKAKRTRAVRPLNLPRRNVNVKPGDVCYVAGWGRMAPMGKYSNTLQEVELTVQKDRECESYFKNRYNKTNQICAGDPKTKRASFRGDSGGPLVCKKVAAGIVSYGYKDGSPPRAFTKVSSFLSWIKKTMKSS | – | – | none of the active enzyme preparations were able to cleave caspase-14
purified murine caspase-2 (protein) GPPCLLVKPCTPEFYQAHYQLAYRLQSQPRGLALVLSNVHFTGEKDLEFRSGGDVDHTTLVTLFKLLGYNVHVLHDQTAQEMQEKLQNFAQLPAHRVTDSCVVALLSHGVEGGIYGVDGKLLQLQEVFRLFDNANCPSLQNKPKMFFIQACRGDETDRGVDQQDGKNHTQSPGCEESDAGKEELMKMRLPTRSDMICGYACLKGNAAMRNTKRGSWYIEALTQVFSERACDMHVADMLVKVNALIKEREGYAPGTEFHRCKEMSEYCSTLCQQLYLFPGYPPT | – | – | none of the active enzyme preparations were able to cleave caspase-14
purified murine caspase-7 (protein) AKPDRSSIISSILLKKKRNASAGPVRTGRDRVPTYLYRMDFQKMGKCIIINNKNFDKATGMDVRNGTDKDAGALFKCFQNLGFEVTVHNDCSCAKMQDLLRKASEEDHSNSACFACVLLSHGEEDLIYGKDGVTPIKDLTAHFRGDRCKTLLEKPKLFFIQACRGTELDDGIQADSGPINDIDANPRNKIPVEADFLFAYSTVPGYYSWRNPGKGSWFVQALCSILNEHGKDLEIMQILTRVNDRVARHFESQSDDPRFNEKKQIPCMVSMLTKELYFSR | – | – | none of the active enzyme preparations were able to cleave caspase-14
purified murine caspase-11 (protein) PGSHHGEANLEMEEPEESLNTLKLCSPEEFTRLCREKTQEIYPIKEANGRTRKALIICNTEFKHLSLRYGANFDIIGMKGLLEDLGYDVVVKEELTAEGMESEMKDFAALSEHQTSDSTFLVLMSHGTLHGICGTMHSEKTPDVLQYDTIYQIFNNCHCPGLRDKPKVIIVQACRGGNSGEMWIRESSKPQLCRGVDLPRNMEADAVKLSHVEKDFIAFYSTTPHHLSYRDKTGGSYFITRLISCFRKHACSCHLFDIFLKVQQSFEKASIHSQMPTIDRATLTRYFYLFPGN | – | – | none of the active enzyme preparations were able to cleave caspase-14

Source: US20020034812
